Values belong to the binder of their own block, whether it stands above or below them.
How the values were obtained:
Pml1p = molecular target: T1, Pml1p (yeast, UniProt Q07930 1-204); test: co-expression in E. coli, Ni2+ capture by the His6 tag on Snu17p, then S200 size exclusion chromatography
T1 construct: Stated to be full-length; subunit of the yeast RES complex; also called Pm1lp
T1 sequence (looked up): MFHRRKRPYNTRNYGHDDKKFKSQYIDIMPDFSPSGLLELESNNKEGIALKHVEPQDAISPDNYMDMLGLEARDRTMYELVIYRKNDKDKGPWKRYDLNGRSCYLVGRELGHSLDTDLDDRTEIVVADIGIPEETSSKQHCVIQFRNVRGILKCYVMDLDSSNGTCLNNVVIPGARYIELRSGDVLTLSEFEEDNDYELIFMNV

Bud13p = molecular target: T2, Bud13p (yeast, UniProt P46947 1-266); test: as above
T2 construct: Stated to be full-length; subunit of the yeast RES complex
T2 sequence (looked up): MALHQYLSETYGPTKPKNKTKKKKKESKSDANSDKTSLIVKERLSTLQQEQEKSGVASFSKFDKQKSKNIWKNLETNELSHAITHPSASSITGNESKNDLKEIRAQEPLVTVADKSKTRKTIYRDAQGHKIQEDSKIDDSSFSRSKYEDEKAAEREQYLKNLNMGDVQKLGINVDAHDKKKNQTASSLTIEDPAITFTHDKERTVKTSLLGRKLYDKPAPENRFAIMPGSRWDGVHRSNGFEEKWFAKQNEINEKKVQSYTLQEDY

[1] = molecular target: T3, full-length human RAP74 with a C-terminal oligo-histidine tag (human, UniProt P35269 1-517); test: co-expression in E. coli, Ni2+ capture by the His tag on RAP74, then S200 size exclusion chromatography
T3 construct: Stated to be full-length; co-expressed with RAP30 in E. coli BL21(DE3); also called hRAP74; RAP74his; not shown: C-terminal oligo-histidine tag
T3 sequence (looked up): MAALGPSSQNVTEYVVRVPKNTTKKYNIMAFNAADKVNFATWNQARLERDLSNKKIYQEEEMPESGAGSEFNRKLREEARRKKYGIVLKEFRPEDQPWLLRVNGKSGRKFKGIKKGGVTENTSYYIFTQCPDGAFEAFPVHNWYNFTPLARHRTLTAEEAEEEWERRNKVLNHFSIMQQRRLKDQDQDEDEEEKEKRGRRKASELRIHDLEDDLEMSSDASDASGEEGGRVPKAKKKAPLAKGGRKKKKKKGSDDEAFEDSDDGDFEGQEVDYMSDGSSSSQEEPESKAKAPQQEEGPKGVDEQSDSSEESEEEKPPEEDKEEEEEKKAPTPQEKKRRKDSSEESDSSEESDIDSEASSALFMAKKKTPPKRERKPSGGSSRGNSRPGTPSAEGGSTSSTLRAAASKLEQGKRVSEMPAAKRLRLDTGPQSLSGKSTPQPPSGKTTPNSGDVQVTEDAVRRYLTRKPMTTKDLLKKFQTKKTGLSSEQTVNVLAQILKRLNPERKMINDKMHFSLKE

[2] = molecular target: T4, Von Hippel Lindau protein (amino acids 54-213), fused at its N-terminus to a six-histidine-thioredoxin fusion … (human, UniProt P40337 54-213); test: co-expression in E. coli, Ni2+ affinity capture by the tag on VHL, SDS-PAGE
T4 construct: range 54-213; Subunit of the VHLbc complex, expressed from the pACE-VHLbc tricistron; also called VHL; HisTrxVHL; not shown: N-terminal six-histidine-thioredoxin fusion tag
T4 sequence (P40337 54-213): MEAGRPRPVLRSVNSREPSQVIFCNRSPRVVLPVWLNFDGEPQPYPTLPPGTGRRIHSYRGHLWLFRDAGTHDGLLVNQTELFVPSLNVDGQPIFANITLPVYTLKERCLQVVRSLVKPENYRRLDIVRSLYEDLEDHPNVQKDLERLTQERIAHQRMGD

binding result (Pml1p): binds | binding result (Bud13p): binds
B1: His6-tagged Snu17p (other, yeast, UniProt P40565 1-148, looked up)
chain: MNKIQQINDKELQSGILSPHQSWHNEYKDNAYIYIGNLNRELTEGDILTVFSEYGVPVDVILSRDENTGESQGFAYLKYEDQRSTILAVDNLNGFKIGGRALKIDHTFYRPKRSLQKYYEAVKEELDRDIVSKNNAEKLILAKKDQPN
notes: Stated to be full-length; subunit of the yeast RES complex; also called Snu17p-NHis; not shown: six-histidine tag fused to the N-terminus

binding result [1]: binds
B2: full-length human RAP30 (other, UniProt P13984 1-249, looked up)
chain: MAERGELDLTGAKQNTGVWLVKVPKYLSQQWAKASGRGEVGKLRIAKTQGRTEVSFTLNEDLANIHDIGGKPASVSAPREHPFVLQSVGGQTLTVFTESSSDKLSLEGIVVQRAECRPAASENYMRLKRLQIEESSKPVRLSQQLDKVVTTNYKPVANHQYNIEYERKKKEDGKRARADKQHVLDMLFSAFEKHQYYNLKDLVDITKQPVVYLKEILKEIGVQNVKGIHKNTWELKPEYRHYQGEEKSD
notes: Stated to be full-length; also called hRAP30

binding result [2]: binds
B3: full-length elongin b (other, human, UniProt Q15370 1-118, looked up)
chain: MDVFLMIRRHKTTIFTDAKESSTVFELKRIVEGILKRPPDEQRLYKDDQLLDDGKTLGECGFTSQTARPQAPATVGLAFRADDTFEALCIEPFSSPPELPDVMKPQDSGSSANEQAVQ
notes: Stated to be full-length

— patent US20120149060A1 (EUROPAISCHES LABORATORIUM FUR MOLEKULARBIOLOGIE EMBL, published 2012)
